According to US20060234208A1, “Novel mechanism for hiv-1 entry into host cells and peptides inhibiting this mechanism” (priority 2002, published 2006):

Key:
[1] = target: T1, recombinant TAT protein (Human immunodeficiency virus type 1 group M subtype B, UniProt P69697, G61N/P58A/P59H/S77P/V67A); test: Binding of selected phage to rTAT-coated microwells; parameters: species or system HIV-1; settings: single phage clones; BSA and insertless phage FdTet as negative controls
T1 construct: TAT86 (full-length); purchased The Centralized facility for AIDS Reagents, National Institute for Biological Standards and Controls (donor Immunodiagnostic)
From the text: For this assay, we have tested single phage clones for binding rTAT-coated microwells, using an unrelated protein, the Bovine Serum Albumin (BSA), as a negative control. The result is shown in the graph, where ‘Transducing Units’ is a parameter indicating the number of bound phage. Binding of the phage to an insertless phage, FdTet, is shown as a negative control.

[2] = system: TAT+/gp120-LV entry into C8166 cells; test: TAT+/gp120-LV entry into C8166 cells after co-culture with U937/TAT cells (Examples IV and V); assay type: cell-based, HIV-1; settings: 4 h co-culture with U937/TAT cells; without protease inhibitors
Procedure: (§1) Transduction with HIV-1 -derived lentivirus. Vector stocks were prepared by transient co-transfection of 293T cells with the following combinations of plasmids: pRRL.hPGK.GFP.SIN-18+pCMV.DR8.2+pMD.G (Naldini et al. (1996), supra) (VSV-G-LV) or pEnvHXB (Huang et al., J. Virol. 72 (1998), 8952-8960) (TAT+/gp120-LV); pRRL.hPGK.GFP.SIN-18+pCMV.DR8.74 +pRSV-Rev ((Dull et al. (1998), supra)+pEnvHXB (TAT/gp120 -LV). Vector concentration was determined by HIV-1 p24 Core profile ELISA following the manufacturer's instructions. The entry experiments were conducted on 10^5 cells per well of a 48-well plate in the presence of 8 μg/ml polybrene. The number of GFP-positive cells was analysed by FACS.

[3] = system: HIV-1 Ba-L; test: Infection of PBMC with HIV-1 strain Ba-L (Example VI); assay type: cell-based; settings: PHA-stimulated PBMCs, 2 h infection; versus 100 μM control peptide; SEQ 4 and 44: 100-50-10 μM, SEQ 127: 1 μM-100-10 nM
Procedure: This example is illustrated in FIG. 12. […] 4 (CSFINT), 44 (RDKVKK) and the complete gp120 region SEQ ID NO.127 (CSFNITTEIRDKVKK), where the entry experiment is performed with two strains of HIV-1 on peripheral blood cells (PBMCs) derived from healthy donors. In particular, strain III B uses CXCR4 as a co-receptor (X4) and Ba-L uses CCR5 (R5). […] In the graphs the percent inhibition of infection due to the peptides is shown, as compared to infection in the presence of 100 μM of a control peptide. PHA-stimulated PBMCs have been incubated with the peptides and immediately infected for 2 h at 37° C. This incubation time is sufficient to evaluate virus entry, by detecting the presence of early viral transcripts into the cytoplasm of infected cells. The peptide concentrations are as follows: SEQ ID NO.4 and 44: 100-50-10 μM; SEQ ID NO. 127: 1 μM-100-10 nM. In FIG. 12A is represented the effect of the peptides on the basal infection of both viral strains, in FIG. 1 2B the effect of the peptides on the infection following incubation with rTAT7 nM. A peptide-dependent inhibition of the basal infection by both HIV-1 strains is present already in the basal infection, reflecting the presence of TAT in the viral supernatants. In particular, these peptides are more efficient in reducing the basal infection by HIV-1 Ba-L than III B, reaching an inhibition from about 40% (SEQ ID NO. 44 and 127) to 70% (SEQ ID NO. 4). After cell incubation with 7 nM rTAT, the peptides have an enhanced efficacy in inhibiting the infection, and all of them show a dose-response effect, with similar outcomes on infections by both viral strains, confirming that their activity is related to the amount of membrane-bound TAT.
Cell cultures. U937 and C8166 cells were cultured in RPMI -1640 medium supplemented with 10% heat inactivated FCS; Phoenix cells were cultured in DMEM supplemented with 10% FCS; 293T cells were cultured in Iscove's medium supplemented with 10% FCS. […]
Infection with wild type HIV-1. […] Amplified DNA was analyzed by Southern blot hybridization with a ^32P-labeled probe, and quantified by densitometry. […]

[4] = target: recombinant TAT86 III B (rTAT) (HIV-1 strain III B) (UniProt P04608)
[5] = target: TAT present in the viral supernatant of HIV-1 Ba-L (HIV-1 strain Ba-L); test: cell-based or functional assay
[6] = system: TAT+/gp120-LV entry into C8166 cells; test: Effect of rTAT pre-incubation on TAT+/gp120-LV entry into C8166 cells; assay type: cell-based, HIV-1; settings: C8166 cells pre-incubated with rTAT for 15 min
Procedure: This effect is reverted if the cells are pre-treated with Heparanase Ill. […] Again, this effect is reverted by pre-treating the cells with Heparanase IlI (FIG. 3B). To investigate the specificity of this effect, we have used lentiviral vectors pseudotyped with a different envelope, i.e. Vescicular Stomatitis Virus-G (VSV-G-LV), to transduce C8166 cells after co-culture with U937/TAT cells for different incubation times, or with the different U937/TAT clones for 2 h. […] Therefore, the increase in cell entry is strictly dependent not only on surface-bound TAT, but also on the presence of gp120. […]
as §1

[7] = target: gp120 (Human immunodeficiency virus type 1 group M subtype B, UniProt P03375); settings: GST-fusion TAT HXB2 variants
From the text: The following TATHXB2 variants were produced as GST-fusion proteins as described (Mitola, S. et al. Identification of specific molecular structures of human immunodeficiency virus type 1 TAT relevant for its biological effects on vascular endothelial cells. J Virol 74, 344-53 (2000): TAT86 (full-length), TAT72 (product of TAT first exon), TATBasMut (with the mutations R-49,52,53,55,56,57-A), TATCysMut (with the mutations C-22,25,27-A.

[8] = system: TAT/gp120-LV entry into C8166 cells; test: Effect of GST-TAT variants on TAT-/gp120-LV entry into C8166 cells; assay type: cell-based, HIV-1; settings: C8166 cells incubated with 7 μM GST-TAT variant for 15 min; compared to wild-type TAT86
Procedure: as §1

## CPDRKKKVVMVC [SEQ ID NO.3, phage insert selected from CX10C Phage Display library, tested as phage]
[1]
  phage binding to rTAT-coated microwells: specifically bind recombinant TAT protein

## CSFNIT [SEQ ID NO. 4]
[2]
  blocking of virus entry at a concentration lower than 100 μM: inefficient
[3]
  percent inhibition of basal infection: ~70%

## CSFNITTEIRDKVKK [SEQ ID NO. 127, Synthetic peptide corresponding to the selected region of gp120]
[3]
  percent inhibition of basal infection: about 40%

## CTVECYFNCTPTC [SEQ ID NO.2, phage insert selected from CX3CX3CX3C Phage Display library, tested as phage]
[1]
  phage binding to rTAT-coated microwells: specifically bind recombinant TAT protein

## RDKVKK [SEQ ID NO. 44]
[2]
  blocking of virus entry at a concentration lower than 100 μM: inefficient
[3]
  percent inhibition of basal infection: about 40%

## recombinant gp120 III B protein
[4]
  Kd: 8 nM

## soluble peptide SEQ ID NO. 4 (CSFNIT)
[5]
  percent inhibition of basal infection of PBMCs by HIV-1 Ba-L: 70%

## soluble peptide SEQ ID NO. 44 (RDKVKK)
[5]
  percent inhibition of basal infection of PBMCs by HIV-1 Ba-L: 40%

B1: rTAT: recombinant TAT (TAT86 III B) protein (protein)
chain: MIPVDPRLEPWKHPGSQPKTACTNCYCKKCCFHCQVCFITKALGISYGRKKRRQRRRAHQNSQTHQASLSKQPTSQPRGDPTGPKE
[6]
  increase of TAT+/gp120-LV entry: dose-response effect in increasing TAT+/gp120-LV entry

B2: TATBasMut: GST-fusion TAT HXB2 variant with the mutations R-49,52,53,55,56,57-A (protein, UniProt P04608 1-86, looked up, variant R49A R52A R53A R55A R56A R57A)
Protein Tat: MEPVDPRLEPWKHPGSQPKTACTNCYCKKCCFHCQVCFITKALGISYGAKKAAQAAAAHQNSQTHQASLSKQPTSQPRGDPTGPKE
modifications: GST fusion
notes: GST-fusion TAT HXB2 variant with the mutations R-49,52,53,55,56,57-A
[7]
  binding to rgp120-coated microwells: retaining the ability to bind gp120
[8]
  enhancement of TAT/gp120-LV entry into the cells: ineffective in enhancing virus entry

B3: TATCysMut: GST-fusion TAT HXB2 variant with the mutations C-22,25,27-A (protein, UniProt P04608 1-86, looked up, variant C22A C25A C27A)
Protein Tat: MEPVDPRLEPWKHPGSQPKTAATNAYAKKCCFHCQVCFITKALGISYGRKKRRQRRRAHQNSQTHQASLSKQPTSQPRGDPTGPKE
modifications: GST fusion
notes: GST-fusion TAT HXB2 variant with the mutations C-22,25,27-A
[8]
  enhancement of TAT/gp120-LV entry into the cells: could enhance vector entry
